From PMC9482650, “Quantitative fragmentomics allow affinity mapping of interactomes” (Nature Communications, 2022)

Columns and labels:
Assay in all cases: holdup assay
Design in all cases: key: below the threshold = too weak to quantify, mostly under pKd 3.1 to 4
Settings in all cases: plain residues with an end cap or a label only (N-terminal biotin on a linker: ado-ado)
[1] = biological target: ARHGEF12, Q9NZN5-2
[2] = biological target: T1, CARD11, Q9BXL7
T1 sequence (Q9BXL7 662-765, limits assumed, looked up): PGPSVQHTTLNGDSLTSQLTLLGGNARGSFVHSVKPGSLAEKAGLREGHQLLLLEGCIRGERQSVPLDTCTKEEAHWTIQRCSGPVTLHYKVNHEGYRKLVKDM

[3] = biological target: DLG1_3, Q12959
Chain of DLG1_3, Q12959 (Q12959 457-571): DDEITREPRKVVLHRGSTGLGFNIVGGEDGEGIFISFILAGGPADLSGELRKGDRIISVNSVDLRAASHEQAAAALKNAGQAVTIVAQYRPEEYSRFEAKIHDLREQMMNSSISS

[4] = biological target: T2, FRMPD1, Q5SYB0
T2 sequence (Q5SYB0 52-145, limits assumed, looked up): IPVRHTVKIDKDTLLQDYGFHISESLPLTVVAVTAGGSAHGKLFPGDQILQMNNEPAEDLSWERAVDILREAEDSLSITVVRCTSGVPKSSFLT

[5] = biological target: GIPC2, Q8TF65
Chain of GIPC2, Q8TF65 (Q8TF65 112-203): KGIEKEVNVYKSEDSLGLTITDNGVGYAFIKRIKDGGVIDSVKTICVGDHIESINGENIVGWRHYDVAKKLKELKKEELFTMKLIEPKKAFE

[6] = biological target: T3, GRIP1_2, Q9Y3R0
T3 sequence (Q9Y3R0 145-248, limits assumed, looked up): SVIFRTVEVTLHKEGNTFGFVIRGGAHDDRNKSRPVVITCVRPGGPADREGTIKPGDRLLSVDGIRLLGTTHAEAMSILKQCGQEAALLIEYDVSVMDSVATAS

[7] = biological target: GRIP2_4, Q9C0E4
Chain of GRIP2_4, Q9C0E4 (Q9C0E4 446-548): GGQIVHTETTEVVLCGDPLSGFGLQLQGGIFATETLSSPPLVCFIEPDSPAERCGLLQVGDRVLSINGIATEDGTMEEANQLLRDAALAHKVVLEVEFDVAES

[8] = biological target: HTRA1, Q92743
Chain of HTRA1, Q92743 (Q92743 360-477): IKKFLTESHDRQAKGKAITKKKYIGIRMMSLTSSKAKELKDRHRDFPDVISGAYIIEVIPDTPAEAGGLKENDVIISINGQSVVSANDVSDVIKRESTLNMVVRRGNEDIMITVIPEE

[9] = biological target: T4, HTRA4, P83105
T4 sequence (P83105 378-476, limits assumed, looked up): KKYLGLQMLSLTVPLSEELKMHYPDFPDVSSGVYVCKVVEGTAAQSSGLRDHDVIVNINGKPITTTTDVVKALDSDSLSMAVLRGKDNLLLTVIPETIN

[10] = biological target: Inadl_5, Q8NI35
Chain of Inadl_5, Q8NI35 (Q8NI35 673-780): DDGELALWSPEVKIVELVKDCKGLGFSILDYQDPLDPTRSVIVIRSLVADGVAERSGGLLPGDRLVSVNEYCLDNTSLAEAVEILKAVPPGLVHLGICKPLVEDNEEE

[11] = biological target: Inadl_6, Q8NI35
Chain of Inadl_6, Q8NI35 (Q8NI35 1058-1167): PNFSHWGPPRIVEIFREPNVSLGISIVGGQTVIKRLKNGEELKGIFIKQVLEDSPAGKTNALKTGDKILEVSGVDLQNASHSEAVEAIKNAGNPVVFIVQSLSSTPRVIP

[12] = biological target: LDB3, O75112
Chain of LDB3, O75112 (O75112 1-94): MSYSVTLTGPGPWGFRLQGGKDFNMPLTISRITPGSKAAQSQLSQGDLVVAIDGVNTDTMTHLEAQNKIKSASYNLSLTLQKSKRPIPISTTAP

[13] = biological target: LNX1_3, Q8TBB1
Chain of LNX1_3, Q8TBB1 (Q8TBB1 500-596): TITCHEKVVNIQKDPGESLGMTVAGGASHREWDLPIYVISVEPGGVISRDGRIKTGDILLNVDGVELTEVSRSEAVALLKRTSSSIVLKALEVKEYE

[14] = biological target: MAGI2_3, Q86UL8
Chain of MAGI2_3, Q86UL8 (Q86UL8 600-682): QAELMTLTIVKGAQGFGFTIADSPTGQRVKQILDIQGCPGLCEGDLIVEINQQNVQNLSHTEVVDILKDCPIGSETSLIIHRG

[15] = biological target: MAGI2_4, Q86UL8
Chain of MAGI2_4, Q86UL8 (Q86UL8 772-865): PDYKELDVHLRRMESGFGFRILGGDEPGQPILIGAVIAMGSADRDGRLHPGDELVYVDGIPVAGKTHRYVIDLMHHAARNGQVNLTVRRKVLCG

[16] = biological target: MAGI2_5, Q86UL8
Chain of MAGI2_5, Q86UL8 (Q86UL8 915-1017): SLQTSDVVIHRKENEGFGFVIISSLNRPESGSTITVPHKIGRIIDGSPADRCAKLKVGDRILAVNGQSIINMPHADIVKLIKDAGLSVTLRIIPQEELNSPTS

[17] = biological target: T5, NHERF3_3, Q5T2W1
T5 sequence (Q5T2W1 238-333, limits assumed, looked up): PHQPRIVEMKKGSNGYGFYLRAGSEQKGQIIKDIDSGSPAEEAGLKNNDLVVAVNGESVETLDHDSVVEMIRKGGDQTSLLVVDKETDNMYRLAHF

[18] = biological target: T6, NHERF3_4, Q5T2W1
T6 sequence (Q5T2W1 373-468, limits assumed, looked up): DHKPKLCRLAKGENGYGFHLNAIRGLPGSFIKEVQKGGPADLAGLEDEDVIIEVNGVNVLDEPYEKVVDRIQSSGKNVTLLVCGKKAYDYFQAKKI

[19] = biological target: NHERF4_2, Q86UT5
Chain of NHERF4_2, Q86UT5 (Q86UT5 220-308): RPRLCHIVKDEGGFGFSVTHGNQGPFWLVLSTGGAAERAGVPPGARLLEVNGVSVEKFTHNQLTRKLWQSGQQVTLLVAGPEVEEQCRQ

[20] = biological target: T7, PDZD2_2, O15018
T7 sequence (O15018 329-429, limits assumed, looked up): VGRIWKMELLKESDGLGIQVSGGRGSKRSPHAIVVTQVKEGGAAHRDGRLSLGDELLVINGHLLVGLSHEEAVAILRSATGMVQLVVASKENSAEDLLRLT

[21] = biological target: PICK1, Q9NRD5
Chain of PICK1, Q9NRD5 (Q9NRD5 17-115): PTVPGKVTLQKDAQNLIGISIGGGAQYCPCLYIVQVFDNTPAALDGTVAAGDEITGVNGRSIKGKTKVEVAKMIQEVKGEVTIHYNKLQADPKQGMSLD

[22] = biological target: PTPN3, P26045
Chain of PTPN3, P26045 (P26045 505-587): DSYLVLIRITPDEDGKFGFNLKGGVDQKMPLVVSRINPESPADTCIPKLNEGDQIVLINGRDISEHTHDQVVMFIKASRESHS

[23] = biological target: SCRIB_2, Q14160
Chain of SCRIB_2, Q14160 (Q14160 857-960): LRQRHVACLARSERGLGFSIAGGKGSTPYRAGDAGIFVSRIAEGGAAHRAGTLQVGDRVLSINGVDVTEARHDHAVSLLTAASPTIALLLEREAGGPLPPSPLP

[24] = biological target: T8, SIPA1L2, Q9P2F8
T8 sequence (Q9P2F8 945-1036, limits assumed, looked up): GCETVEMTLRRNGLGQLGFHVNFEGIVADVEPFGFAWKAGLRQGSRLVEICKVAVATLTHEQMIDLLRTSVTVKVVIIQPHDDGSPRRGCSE

[25] = biological target: T9, SNTA1, Q13424
T9 sequence (Q13424 82-180, limits assumed, looked up): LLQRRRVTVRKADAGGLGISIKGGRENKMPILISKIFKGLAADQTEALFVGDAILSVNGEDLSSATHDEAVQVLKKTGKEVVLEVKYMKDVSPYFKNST

[26] = biological target: T10, SNTG1, Q9NSN8
T10 sequence (Q9NSN8 52-150, limits assumed, looked up): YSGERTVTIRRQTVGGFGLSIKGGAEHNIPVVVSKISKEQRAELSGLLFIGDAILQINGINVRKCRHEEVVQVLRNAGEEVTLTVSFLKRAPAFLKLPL

[27] = biological target: T11, TJP3_3, O95049
T11 sequence (O95049 375-456, limits assumed, looked up): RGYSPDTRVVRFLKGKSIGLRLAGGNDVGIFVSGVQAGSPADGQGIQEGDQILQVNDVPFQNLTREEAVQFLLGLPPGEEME

Chain of ARHGEF12, Q9NZN5-2 (Q9NZN5 other isoform, or with tags, fused parts or gaps): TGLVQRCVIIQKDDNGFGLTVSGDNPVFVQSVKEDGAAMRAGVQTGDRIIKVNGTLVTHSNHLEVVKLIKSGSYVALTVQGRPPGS

Row | Binder | pKd [1] | pKd [2] | pKd [3] | pKd [4] | pKd [5] | pKd [6] | pKd [7] | pKd [8] | pKd [9] | pKd [10] | pKd [11] | pKd [12] | pKd [13] | pKd [14] | pKd [15] | pKd [16] | pKd [17] | pKd [18] | pKd [19] | pKd [20] | other results
1 | QGLAERISVL [PRKD2, Q9BZL6] | 5.06 | below the threshold | below the threshold | below the threshold | below the threshold | below the threshold | below the threshold | 4.77 | 4.06 | below the threshold | 4.02 | below the threshold | below the threshold | below the threshold | below the threshold | 4.13 | below the threshold | 3.73 | below the threshold | 4.32 | pKd [21]: 4.17; pKd [22]: 4.72; pKd [23]: below the threshold; pKd [24]: below the threshold; pKd [25]: 4.71; pKd [26]: 3.54; pKd [27]: below the threshold
2 | NHSSSPETTA [TRMT13, Q9NUP7] | below the threshold | below the threshold | below the threshold | below the threshold | below the threshold | below the threshold | below the threshold | below the threshold | below the threshold | below the threshold | below the threshold | below the threshold | below the threshold | below the threshold | below the threshold | below the threshold | below the threshold | below the threshold | below the threshold | below the threshold | pKd [21]: below the threshold; pKd [22]: 3.88; pKd [23]: below the threshold; pKd [24]: below the threshold; pKd [25]: below the threshold; pKd [26]: below the threshold; pKd [27]: below the threshold
3 | LPHPHSTTRV [NLGN2, Q8NFZ4] | 3.84 | below the threshold | 4.13 | below the threshold | below the threshold | below the threshold | below the threshold | 3.6 | 3.97 | below the threshold | below the threshold | below the threshold | below the threshold | 4.24 | 3.72 | below the threshold | below the threshold | below the threshold | below the threshold | below the threshold | pKd [21]: 4.24; pKd [22]: below the threshold; pKd [23]: below the threshold; pKd [24]: below the threshold; pKd [25]: 4.18; pKd [26]: below the threshold; pKd [27]: below the threshold
4 | PAPSSGKDYV [CLDN1, O95832] | below the threshold | below the threshold | below the threshold | below the threshold | below the threshold | below the threshold | below the threshold | 3.94 | below the threshold | below the threshold | below the threshold | below the threshold | below the threshold | below the threshold | 3.54 | below the threshold | below the threshold | below the threshold | below the threshold | 4.59 | pKd [21]: below the threshold; pKd [22]: below the threshold; pKd [23]: below the threshold; pKd [24]: below the threshold; pKd [25]: below the threshold; pKd [26]: below the threshold; pKd [27]: 3.55
5 | EVEEFPETSV [TRPV3, Q8NET8] | 3.94 | 3.49 | 4.64 | below the threshold | 4.32 | 3.59 | 3.55 | 4.16 | below the threshold | 3.56 | 4.18 | below the threshold | below the threshold | 4.06 | 3.68 | 3.82 | below the threshold | below the threshold | below the threshold | 4.99 | pKd [21]: below the threshold; pKd [22]: 4.95; pKd [23]: 4.94; pKd [24]: 3.55; pKd [25]: 5.22; pKd [26]: 5.53; pKd [27]: 3.57
